Assay results reported in IntAct's records for PubMed 31515488.

B1: Ribosome quality control complex subunit TCF25 (Homo sapiens), Q9BQ70 (parent)
chain: MSRRALRRLRGEQRGQEPLGPGALHFDLRDDDDAEEEGPKRELGVRRPGGAGKEGVRVNNRFELINIDDLEDDPVVNGERSGCALTDAVAPGNKGRGQRGNTESKTDGDDTETVPSEQSHASGKLRKKKKKQKNKKSSTGEASENGLEDIDRILERIEDSTGLNRPGPAPLSSRKHVLYVEHRHLNPDTELKRYFGARAILGEQRPRQRQRVYPKCTWLTTPKSTWPRYSKPGLSMRLLESKKGLSFFAFEHSEEYQQAQHKFLVAVESMEPNNIVVLLQTSPYHVDSLLQLSDACRFQEDQEMARDLVERALYSMECAFHPLFSLTSGACRLDYRRPENRSFYLALYKQMSFLEKRGCPRTALEYCKLILSLEPDEDPLCMLLLIDHLALRARNYEYLIRLFQEWEAHRNLSQLPNFAFSVPLAYFLLSQQTDLPECEQSSARQKASLLIQQALTMFPGVLLPLLESCSVRPDASVSSHRFFGPNAEISQPPALSQLVNLYLGRSHFLWKEPATMSWLEENVHEVLQAVDAGDPAVEACENRRKVLYQRAPRNIHRHVILSEIKEAVAALPPDVTTQSVMGFDPLPPSDTIYSYVRPERLSPISHGNTIALFFRSLLPNYTMEGERPEEGVAGGLNRNQGLNRLMLAVRDMMANFHLNDLEAPHEDDAEGEGEWD
partner: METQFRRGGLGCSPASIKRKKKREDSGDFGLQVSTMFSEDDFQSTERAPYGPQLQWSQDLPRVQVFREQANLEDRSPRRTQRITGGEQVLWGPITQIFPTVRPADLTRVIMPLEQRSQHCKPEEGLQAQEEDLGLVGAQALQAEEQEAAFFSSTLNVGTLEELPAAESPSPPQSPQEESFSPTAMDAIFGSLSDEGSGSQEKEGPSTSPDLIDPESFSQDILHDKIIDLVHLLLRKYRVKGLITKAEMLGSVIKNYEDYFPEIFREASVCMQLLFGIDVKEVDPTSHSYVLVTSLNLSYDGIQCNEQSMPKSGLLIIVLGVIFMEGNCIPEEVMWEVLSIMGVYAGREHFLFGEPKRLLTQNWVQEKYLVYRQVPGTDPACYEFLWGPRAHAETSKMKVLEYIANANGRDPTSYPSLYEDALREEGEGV
B2: UDP-galactose translocator (Homo sapiens), P78381 (parent)
chain: MAAVGAGGSTAAPGPGAVSAGALEPGTASAAHRRLKYISLAVLVVQNASLILSIRYARTLPGDRFFATTAVVMAEVLKGLTCLLLLFAQKRGNVKHLVLFLHEAVLVQYVDTLKLAVPSLIYTLQNNLQYVAISNLPAATFQVTYQLKILTTALFSVLMLNRSLSRLQWASLLLLFTGVAIVQAQQAGGGGPRPLDQNPGAGLAAVVASCLSSGFAGVYFEKILKGSSGSVWLRNLQLGLFGTALGLVGLWWAEGTAVATRGFFFGYTPAVWGVVLNQAFGGLLVAVVVKYADNILKGFATSLSIVLSTVASIRLFGFHVDPLFALGAGLVIGAVYLYSLPRGAAKAIASASASASGPCVHQQPPGQPPPPQLSSHRGDLITEPFLPKLLTKVKGS
B3: Gem-associated protein 7 (Homo sapiens), Q9H840 (parent)
chain: MQTPVNIPVPVLRLPRGPDGFSRGFAPDGRRAPLRPEVPEIQECPIAQESLESQEQRARAALRERYLRSLLAMVGHQVSFTLHEGVRVAAHFGATDLDVANFYVSQLQTPIGVQAEALLRCSDIISYTFKP
B4: Break repair meiotic recombinase recruitment factor 1 (Homo sapiens), Q0VDD7 (parent)
chain: MTKRKKLRTSGEGLCPPKPLKNPRLGDFYGDPQSSMLGCLHHPEEPEGKLGPVPSTQQHGEEPGKAVSSSPDEETGSPCRLLRQPEKEPAPLPPSQNSFGRFVPQFAKSRKTVTRKEEMKDEDRGSGAFSLETIAESSAQSPGCQLLVETLGVPLQEATELGDPTQADSARPEQSSQSPVQAVPGSGDSQPDDPPDRGTGLSASQRASQDHLSEQGADDSKPETDRVPGDGGQKEHLPSIDSEGEKPDRGAPQEGGAQRTAGAGLPGGPQEEGDGVPCTPASAPTSGPAPGLGPASWCLEPGSVAQGSPDPQQTPSRMGREGEGTHSSLGCSSLGMVVIADLSTDPTELEERALEVAGPDGQASAISPASPRRKAADGGHRRALPGCTSLTGETTGESGEAGQDGKPPGDVLVGPTASLALAPGSGESMMGAGDSGHASPDTGPCVNQKQEPGPAQEEAELGGQNLERDLEGFRVSPQASVVLEHREIADDPLQEPGAQQGIPDTTSELAGQRDHLPHSADQGTWADSLAVELDFLLDSQIQDALDASDFEAPPEQLFPSGNKPGPCWPGPSSHANGDPVAVAKAQPRTFVGIQASEASRMEDATNVVRGLIVELSNLNRLIMGTHRDLEAFKRLNYRKTKLGGKAPLPYPSKGPGNIPRGDPPWREL
partner: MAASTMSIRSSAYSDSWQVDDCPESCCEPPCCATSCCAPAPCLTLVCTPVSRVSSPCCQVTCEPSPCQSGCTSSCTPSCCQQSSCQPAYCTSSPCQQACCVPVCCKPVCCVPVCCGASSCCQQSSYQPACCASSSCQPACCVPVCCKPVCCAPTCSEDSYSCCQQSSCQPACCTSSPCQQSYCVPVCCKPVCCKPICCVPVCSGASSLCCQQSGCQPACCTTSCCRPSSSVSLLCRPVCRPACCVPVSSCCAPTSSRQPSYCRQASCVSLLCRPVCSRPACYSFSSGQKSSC
B5: Bcl-2-interacting killer (Homo sapiens), Q13323 (parent)
chain: MSEVRPLSRDILMETLLYEQLLEPPTMEVLGMTDSEEDLDPMEDFDSLECMEGSDALALRLACIGDEMDVSLRAPRLAQLSEVAMHSLGLAFIYDQTEDIRDVLRSFMDGFTTLKENIMRFWRSPNPGSWVSCEQVLLALLLLLALLLPLLSGGLHLLLK
B6: NUT family member 2F (Homo sapiens), A1L443 (parent)
chain: MASNGAYPVLGPGVTVNPGTSLSVFTALPFATPAPGPAHRPPLVTAVVPPAGPLVLSAFPSTPLVAGQDGRGPSGAGASNVFVQMRTEVGPVKPPQAQTLILTQAPLVWQAPGTLCGGVMCPPPLLLAAAPGVPVTSAQVVGGTQACEGGWSHGLPLPPPPPAAQVAPIVSPGNARPWPQGAHGEGSLAPSQAKARPDDSCKPKSVYENFRLWQHYKPLARRHLPQSPDTEALSCFLIPVLRSLARRKPTMTLEEGLWQAMREWQHTSNFDRMIFYEMAEKFLEFEAEEEMQIQKSQWMKGPQSLPPPAPPRLEPRGPPAPEVVKQPVYLPSKDGPKAPTACLPPPRPQRPAETKAHLPPPRPQRPAETNAHLPPPRPQRPAETKVPEEIPPEVVQEYVDIMEELLGSHPGDTGEPEGQREKGKVEQPQEEDGITSDPGLLSYIDKLCSQEDFVTKVEAVIHPRFLEELLSPDPQMDFLALSQELEQEEGLTLAQLVEKRLLSLKEKGCGRAAPRHGTARLDSSPSEFAAGQEAAREVPDPQQRVSVETSPPQTAAQDPQGQGRVRTGMARSEDPAVLLGCQDSPRLKAVRPTSPPQDHRPTCPGLGTKDALGLPGESPVKESHGLAKGSSEETELPGMVYVVGSHHRLRPWRLSQSPVPSSGLLSPGGRGPQGALQSPSAQKRGLSPSPSPASKSKKRPLFGSPSPAEKTPHPGPGLRVSGEQSLAWGLGGPSQSQKRKGDPLASRRKKKRHCSQ
partner: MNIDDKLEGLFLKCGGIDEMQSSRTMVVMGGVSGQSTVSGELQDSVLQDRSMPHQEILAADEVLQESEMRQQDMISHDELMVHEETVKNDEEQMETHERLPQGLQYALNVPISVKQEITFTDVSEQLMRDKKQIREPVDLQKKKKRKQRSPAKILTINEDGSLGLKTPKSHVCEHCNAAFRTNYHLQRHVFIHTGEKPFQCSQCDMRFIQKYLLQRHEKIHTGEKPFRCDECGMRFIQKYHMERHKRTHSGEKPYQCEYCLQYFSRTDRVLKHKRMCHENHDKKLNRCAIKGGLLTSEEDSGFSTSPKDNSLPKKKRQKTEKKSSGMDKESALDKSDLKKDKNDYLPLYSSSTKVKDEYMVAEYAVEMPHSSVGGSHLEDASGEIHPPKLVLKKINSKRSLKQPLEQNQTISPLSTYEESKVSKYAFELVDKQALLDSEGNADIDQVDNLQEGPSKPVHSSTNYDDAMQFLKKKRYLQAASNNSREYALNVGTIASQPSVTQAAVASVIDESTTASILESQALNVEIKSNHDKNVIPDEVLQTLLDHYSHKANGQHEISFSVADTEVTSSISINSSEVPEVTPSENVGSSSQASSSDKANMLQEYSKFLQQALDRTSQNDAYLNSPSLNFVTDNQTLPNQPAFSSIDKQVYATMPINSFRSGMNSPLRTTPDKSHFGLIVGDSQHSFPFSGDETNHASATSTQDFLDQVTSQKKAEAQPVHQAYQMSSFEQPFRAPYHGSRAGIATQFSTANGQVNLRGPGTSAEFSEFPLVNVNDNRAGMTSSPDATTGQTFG
B7: Protein SSX3 (Homo sapiens), Q99909 (parent)
chain: MNGDDTFARRPTVGAQIPEKIQKAFDDIAKYFSKEEWEKMKVSEKIVYVYMKRKYEAMTKLGFKAILPSFMRNKRVTDFQGNDFDNDPNRGNQVQRPQMTFGRLQGIFPKIMPKKPAEEGNVSKEVPEASGPQNDGKQLCPPGKPTTSEKINMISGPKRGEHAWTHRLRERKQLVIYEEISDPEEDDE

Variants of: B1
Settings: with magab_human MAGEA11, P43364

Row | effect of a mutation on the interaction | Variant
1 | with no effect | V526A

Variants of: B2
Settings: with pls1_human PLSCR1, O15162
Chain of pls1_human PLSCR1, O15162 (O15162 whole entry): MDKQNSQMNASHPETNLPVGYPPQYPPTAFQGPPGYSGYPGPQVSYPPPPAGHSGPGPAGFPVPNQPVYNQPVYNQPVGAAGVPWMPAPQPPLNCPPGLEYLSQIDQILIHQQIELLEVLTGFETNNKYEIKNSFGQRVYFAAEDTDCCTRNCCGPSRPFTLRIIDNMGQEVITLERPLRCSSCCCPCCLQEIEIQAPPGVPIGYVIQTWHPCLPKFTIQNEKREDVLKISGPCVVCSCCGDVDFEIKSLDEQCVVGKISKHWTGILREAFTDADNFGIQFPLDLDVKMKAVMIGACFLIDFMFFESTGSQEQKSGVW

Row | effect of a mutation on the interaction | Variant
2 | with no effect | A57T

Variants of: B3
Settings: with gemi6_human GEMIN6, Q8WXD5
Chain of gemi6_human GEMIN6, Q8WXD5 (Q8WXD5 whole entry): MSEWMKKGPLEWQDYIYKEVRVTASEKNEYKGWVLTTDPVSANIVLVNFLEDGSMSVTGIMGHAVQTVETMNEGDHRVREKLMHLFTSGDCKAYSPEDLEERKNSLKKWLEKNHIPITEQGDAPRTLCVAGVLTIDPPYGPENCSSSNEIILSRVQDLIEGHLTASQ

Row | effect of a mutation on the interaction | Variant
3 | with no effect | R68C

Variants of: B4
Settings: with kr109_human KRTAP10-9, P60411

Row | effect of a mutation on the interaction | Variant
4 | with no effect | G267R
5 | with no effect | Q500R
6 | with no effect | L155F
7 | with no effect | N576S

Variants of: B5
Settings: with BCL2L1, Q07817
Chain of BCL2L1, Q07817 (Q07817 whole entry): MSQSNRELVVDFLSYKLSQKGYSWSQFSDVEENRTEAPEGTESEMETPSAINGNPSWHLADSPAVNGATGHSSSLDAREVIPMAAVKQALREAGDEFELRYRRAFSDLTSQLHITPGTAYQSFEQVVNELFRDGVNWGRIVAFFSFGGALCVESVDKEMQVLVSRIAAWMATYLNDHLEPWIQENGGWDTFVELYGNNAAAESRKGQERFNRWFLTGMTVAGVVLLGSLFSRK

Row | effect of a mutation on the interaction | Variant
8 | with no effect | D69E

Variants of: B6
Settings: with zn148_human ZNF148, Q9UQR1

Row | effect of a mutation on the interaction | Variant
9 | with no effect | N370K

Variants of: B7
Settings: with cep63_human CEP63, Q96MT8
Chain of cep63_human CEP63, Q96MT8 (Q96MT8 whole entry): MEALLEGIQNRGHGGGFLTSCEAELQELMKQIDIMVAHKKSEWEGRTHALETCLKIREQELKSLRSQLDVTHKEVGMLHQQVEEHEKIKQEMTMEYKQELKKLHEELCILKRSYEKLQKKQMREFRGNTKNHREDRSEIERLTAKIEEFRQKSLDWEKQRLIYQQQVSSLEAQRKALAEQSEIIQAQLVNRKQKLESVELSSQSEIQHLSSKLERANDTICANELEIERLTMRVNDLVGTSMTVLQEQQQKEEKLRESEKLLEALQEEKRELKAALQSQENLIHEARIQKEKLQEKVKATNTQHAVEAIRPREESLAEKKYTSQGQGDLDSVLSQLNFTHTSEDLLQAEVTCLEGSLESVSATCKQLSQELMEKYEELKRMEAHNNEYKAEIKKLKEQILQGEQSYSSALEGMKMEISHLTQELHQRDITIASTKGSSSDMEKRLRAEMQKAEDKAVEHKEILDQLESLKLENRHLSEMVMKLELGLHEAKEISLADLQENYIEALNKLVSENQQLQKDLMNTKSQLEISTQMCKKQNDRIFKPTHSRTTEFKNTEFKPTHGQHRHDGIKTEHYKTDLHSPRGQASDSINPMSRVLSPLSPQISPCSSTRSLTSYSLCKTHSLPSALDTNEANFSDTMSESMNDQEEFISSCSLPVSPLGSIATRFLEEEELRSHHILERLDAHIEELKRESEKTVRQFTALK

Row | effect of a mutation on the interaction | Variant
10 | with no effect | R159S
11 | with no effect | T77A
